Experimental data: patent publication US20230293685A1

B1: anti-PD-1 antibody clone EH12.2H7 (antibody, from another filing, IgG1, V domains shown)
VH: QVQLQQSGAELAKPGASVQMSCKASGYSFTSSWIHWVKQRPGQGLEWIGYIYPSTGFTEYNQKFKDKATLTADKSSSTAYMQLSSLTSEDSAVYYCARWRDSSGYHAMDYWGQGTSVTVSS
VL: DIVLTQSPASLTVSLGQRATISCRASQSVSTSGYSYMHWYQQKPGQPPKLLIKFGSNLESGIPARFSGSGSGTDFTLNIHPVEEEDTATYYCQHSWEIPYTFGGGTKLEIK

Key:
[1] = molecular target: PD-1 (programmed cell death 1; CD279) on tumor infiltrating lymphocytes (human) (UniProt Q15116); assay: positive magnetic selection of TIL with M1H4-coupled microbeads
[2] = molecular target: PD-1 (programmed cell death 1; CD279) on tumor infiltrating lymphocytes (human) (UniProt Q15116); assay: flow cytometry, tumour digest H3046 stained with anti-PD-1 clone EH12.2H7; percent of CD3+ cells
[3] = molecular target: PD-1 (programmed cell death 1; CD279) on tumor infiltrating lymphocytes (human) (UniProt Q15116); assay: flow cytometry, tumour digest OV8074 stained with anti-PD-1 clone EH12.2H7; percent of CD3+ cells
[4] = molecular target: PD-1 (programmed cell death 1; CD279) on tumor infiltrating lymphocytes (human) (UniProt Q15116); assay: flow cytometry re-analysis of cells sorted on EH12.2H7 staining, tumour OV8074
[5] = molecular target: PD-1 (programmed cell death 1; CD279) on tumor infiltrating lymphocytes (human) (UniProt Q15116); assay: flow cytometry, tumour digest M1156 stained with anti-PD-1 clone EH12.2H7; percent of CD3+ cells
[6] = molecular target: PD-1 (programmed cell death 1; CD279) on tumor infiltrating lymphocytes (human) (UniProt Q15116); assay: positive magnetic selection of REP TIL with EH12.2H7-coupled microbeads; sorted cells stained with secondary mIgG1-PE and aCD3 FITC
[7] = molecular target: PD-1 (programmed cell death 1; CD279) on tumor infiltrating lymphocytes (human) (UniProt Q15116); assay: flow cytometry re-analysis of cells sorted on EH12.2H7 staining, tumour M1156

Sequence of UniProt Q15116 (Q15116 25-288): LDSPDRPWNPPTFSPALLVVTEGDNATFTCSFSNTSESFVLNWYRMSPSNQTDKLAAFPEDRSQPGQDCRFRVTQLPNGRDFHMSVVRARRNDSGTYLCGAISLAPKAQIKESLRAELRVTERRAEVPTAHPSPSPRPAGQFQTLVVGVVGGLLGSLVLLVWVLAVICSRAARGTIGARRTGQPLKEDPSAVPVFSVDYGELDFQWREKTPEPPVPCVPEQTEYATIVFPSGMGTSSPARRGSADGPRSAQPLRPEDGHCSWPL

| Molecule | purity of PD-1+ TIL after magnetic selection [1] [%] | Pre-sort % PD-1+ (of CD3+) [2] [%] | Pre-sort % PD-1+ (of CD3+) [3] [%] | Post-sort Purity % PD-1+ (of CD3+) [4] [%] | Pre-sort % PD-1+ (of CD3+) [5] [%] | purity of PD-1+ TIL after magnetic selection [6] [%] | Post-sort Purity % PD-1+ (of CD3+) [7] [%] |
| --- | --- | --- | --- | --- | --- | --- | --- |
| CD279 (PD-1) Monoclonal Antibody (Clone-MIH4), eBioscience | > 85 | – | – | – | – | – | – |
| B1 | – | 13 | 70 | 98 | 93 | > 85 | 100 |
